Laboratory results from publication PMC10759225.

Molecular target: TAX peptide, a peptide of the human T-cell leukemia virus type I peptide on HLA-A2 (human)
Assay: data from Cole et al. (2013); the method is not told in this article; the reference is the unmutated A6-TCR

“A6-TCR with mutated CDR3 beta loop (PDB 4FTV)” showed a fold enhancement of binding over the parent A6-TCR of 1000 fold.
